Reference: PMC3229523, “Identification of Lactoferricin B Intracellular Targets Using an Escherichia coli Proteome Chip” (PLoS ONE, 2011)
Ends that are not written are not given here. * marks the point of attachment. Biotin = O=C1N[C@H]2[C@H](CS[C@H]2CCCCC(=O)*)N1

Experiments:
Test in all cases: peptide or protein array; E. coli proteome chip: purified His-tagged proteins printed in duplicate on Fullmoon slides, blocked with 1% BSA; 10 nM N-terminal biotinylated LfcinB with 1% BSA, room temperature, 1 h; detected with DyLight 649-labeled streptavidin, ratio to DyLight 549-labeled anti-His antibody; ProCAT normalisation, local cut-off; triplicate chips
Settings in all cases: both partners purified
[1] = molecular target: T1, YjeS (E. coli K-12, UniProt P39288 1-379)
T1 construct: YjeS, E. coli K-12
T1 sequence (looked up): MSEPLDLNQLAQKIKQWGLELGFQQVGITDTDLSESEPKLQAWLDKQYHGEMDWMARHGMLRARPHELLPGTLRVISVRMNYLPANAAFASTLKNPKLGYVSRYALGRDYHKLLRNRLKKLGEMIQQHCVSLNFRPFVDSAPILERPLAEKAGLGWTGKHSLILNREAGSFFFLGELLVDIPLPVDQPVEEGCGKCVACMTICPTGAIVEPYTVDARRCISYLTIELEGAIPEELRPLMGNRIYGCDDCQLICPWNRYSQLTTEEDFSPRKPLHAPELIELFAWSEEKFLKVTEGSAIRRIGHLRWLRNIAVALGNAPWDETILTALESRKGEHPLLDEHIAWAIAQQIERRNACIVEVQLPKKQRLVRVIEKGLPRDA

[2] = molecular target: T2, Sun (E. coli K-12, UniProt P36929 1-429)
T2 construct: Sun, E. coli K-12
T2 sequence (looked up): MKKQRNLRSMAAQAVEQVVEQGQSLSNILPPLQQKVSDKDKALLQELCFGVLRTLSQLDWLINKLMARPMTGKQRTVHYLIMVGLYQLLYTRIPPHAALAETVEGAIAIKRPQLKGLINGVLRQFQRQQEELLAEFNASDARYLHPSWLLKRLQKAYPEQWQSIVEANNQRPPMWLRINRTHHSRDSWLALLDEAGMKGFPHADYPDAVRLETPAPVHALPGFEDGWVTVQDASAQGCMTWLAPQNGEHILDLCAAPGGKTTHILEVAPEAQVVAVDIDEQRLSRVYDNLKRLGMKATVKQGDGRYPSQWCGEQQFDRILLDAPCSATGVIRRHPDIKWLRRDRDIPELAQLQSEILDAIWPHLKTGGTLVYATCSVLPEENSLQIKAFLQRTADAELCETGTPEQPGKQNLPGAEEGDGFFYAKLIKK

[3] = molecular target: T3, YheH (E. coli K-12, UniProt P45760 7-125)
T3 construct: YheH, E. coli K-12
T3 sequence (looked up): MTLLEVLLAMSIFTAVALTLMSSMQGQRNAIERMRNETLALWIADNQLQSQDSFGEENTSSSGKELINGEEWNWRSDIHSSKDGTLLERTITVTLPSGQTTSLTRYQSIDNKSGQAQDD

[4] = molecular target: T4, GloA (E. coli K-12, UniProt P0AC81 1-135)
T4 construct: GloA, E. coli K-12
T4 sequence (looked up): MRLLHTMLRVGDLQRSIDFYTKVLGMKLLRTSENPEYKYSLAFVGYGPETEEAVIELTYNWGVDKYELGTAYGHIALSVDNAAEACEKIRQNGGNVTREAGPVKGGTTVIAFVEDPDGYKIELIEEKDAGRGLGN

[5] = molecular target: T5, AmiA (E. coli K-12, UniProt P36548 35-289)
T5 construct: AmiA, E. coli K-12
T5 sequence (looked up): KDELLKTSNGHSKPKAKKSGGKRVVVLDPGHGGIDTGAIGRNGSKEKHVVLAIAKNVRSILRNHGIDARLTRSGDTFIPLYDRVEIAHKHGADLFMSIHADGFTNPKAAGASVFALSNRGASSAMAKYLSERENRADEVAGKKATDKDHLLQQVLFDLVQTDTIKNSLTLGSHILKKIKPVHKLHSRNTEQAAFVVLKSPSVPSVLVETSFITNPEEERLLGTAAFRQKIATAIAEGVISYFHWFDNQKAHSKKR

[6] = molecular target: T6, YhjH (E. coli K-12, UniProt P37646 1-255)
T6 construct: YhjH, E. coli K-12
T6 sequence (looked up): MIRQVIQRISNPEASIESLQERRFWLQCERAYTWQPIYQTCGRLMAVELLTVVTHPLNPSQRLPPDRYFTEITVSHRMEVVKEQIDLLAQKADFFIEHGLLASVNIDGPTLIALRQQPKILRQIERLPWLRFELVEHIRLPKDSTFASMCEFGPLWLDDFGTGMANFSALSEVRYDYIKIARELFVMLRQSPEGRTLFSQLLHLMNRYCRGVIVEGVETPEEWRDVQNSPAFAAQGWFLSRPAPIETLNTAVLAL

Measured: binding result

B1: N-terminal biotinylated Lactoferricin B (peptide, UniProt P24627 36-60, looked up)
peptide: Biotin-FKCRRWQWRMKKLGAPSITCVRRAF
modifications: ends and bridges not checked
notes: lactoferricin B (LfcinB), cationic antimicrobial peptide of 25 amino acids; also called biotinylated LfcinB; biotin-labeled LfcinB; source: bought: Kelowna Inc
binds: all assays above
